In patent publication US20240383982A1 (Genmab, published 2024):

T1: human B7H4, full length, on cells (human, UniProt Q7Z7D3 25-282)
T1 construct: Uniprot Q7Z7D3; Used for transfected HEK cells and for the B7H4-expressing human tumor cell lines (endogenous B7H4); also called VTCN1
T1 sequence: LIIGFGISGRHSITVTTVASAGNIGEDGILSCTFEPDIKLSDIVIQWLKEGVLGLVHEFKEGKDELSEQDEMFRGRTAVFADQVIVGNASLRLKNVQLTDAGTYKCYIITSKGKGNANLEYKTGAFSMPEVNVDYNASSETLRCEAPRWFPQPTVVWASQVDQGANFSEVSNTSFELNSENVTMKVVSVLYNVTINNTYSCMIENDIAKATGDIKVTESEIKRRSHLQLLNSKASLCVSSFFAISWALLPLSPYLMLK

T2: human recombinant His tagged B7H4 protein (Sino Biological cat. no. 10738-H08H) (human, UniProt Q7Z7D3 29-258)
T2 construct: Bought protein; theoretical mass 26.8 kDa; also called human B7H4; human B7H4 extracellular domain
T2 sequence: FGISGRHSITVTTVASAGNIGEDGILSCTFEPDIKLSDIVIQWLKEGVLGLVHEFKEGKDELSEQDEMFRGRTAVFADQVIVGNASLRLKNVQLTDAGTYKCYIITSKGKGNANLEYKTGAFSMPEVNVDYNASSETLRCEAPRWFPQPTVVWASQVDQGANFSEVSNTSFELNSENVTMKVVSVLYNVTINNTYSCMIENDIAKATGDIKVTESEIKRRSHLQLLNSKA

T3: B7H3-IgV/B7H4-IgC
T3 construct: also called chimeric molecule with the IgV domain of B7H3 and the IgC domain of B7H4
T3 full-length chimeric protein on cells: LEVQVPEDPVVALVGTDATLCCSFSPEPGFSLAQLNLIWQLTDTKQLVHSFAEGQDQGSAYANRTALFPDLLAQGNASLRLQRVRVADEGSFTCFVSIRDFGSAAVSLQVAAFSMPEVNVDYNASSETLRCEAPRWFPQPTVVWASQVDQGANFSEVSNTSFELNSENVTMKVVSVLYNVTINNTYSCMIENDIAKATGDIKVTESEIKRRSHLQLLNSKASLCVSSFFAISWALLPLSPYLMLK

T4: mouse B7H4 ECD-His (R&D Systems, cat. no. 2154-B7-050) (mouse, UniProt Q7TSP5 29-256)
T4 construct: Bought ECD-His protein (26.6 kDa); also called mouse B7H4 extracellular domain
T4 sequence: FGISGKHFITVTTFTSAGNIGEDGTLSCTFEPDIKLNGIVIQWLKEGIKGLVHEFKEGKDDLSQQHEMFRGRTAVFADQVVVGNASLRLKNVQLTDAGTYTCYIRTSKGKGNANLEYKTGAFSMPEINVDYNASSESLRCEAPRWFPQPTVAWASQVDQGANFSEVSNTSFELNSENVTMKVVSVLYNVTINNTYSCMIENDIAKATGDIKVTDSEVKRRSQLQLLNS

B1: IgG1-B7H4-C1-N52S-FEAR (antibody, V domains shown)
VH: QVQLQQWGAGLLKPSETLSLTCAVYGGSFSGYYWSWIRQPPGKGLEWIGEISHSGSTNYNPSLKSRVTISIDTSKNQFSLKLTSVTAADTAVFYCARGLFNWNFDSWGQGTLVTVSS
VL: DIQMTQSPSSLSASVGDRVTITCRASQGIRNDLGWYQQKPGKAPKRLIYGASSLQSGVPSRFSGSGSGTEFTLTISSLQPEDFATYYCLQHNSYPRTFGQGTTVEIKR
notes: Full length human IgG1 with L234F, L235E, D265A, K409R (FEAR) heavy chain constant region and kappa light chain; bivalent, monospecific; also called IgG1-B7H4-C1-052S-FEAR
B2: bsIgG1-huCD3-H101G-FEALxB7H4-C1-N52S-FEAR (bispecific antibody)
heavy 1: not shown
light 1: not shown
heavy 2: QVQLQQWGAGLLKPSETLSLTCAVYGGSFSGYYWSWIRQPPGKGLEWIGEISHSGSTNYNPSLKSRVTISIDTSKNQFSLKLTSVTAADTAVFYCARGLFNWNFDSWGQGTLVTVSSASTKGPSVFPLAPSSKSTSGGTAALGCLVKDYFPEPVTVSWNSGALTSGVHTFPAVLQSSGLYSLSSVVTVPSSSLGTQTYICNVNHKPSNTKVDKRVEPKSCDKTHTCPPCPAPEFEGGPSVFLFPPKPKDTLMISRTPEVTCVVVAVSHEDPEVKFNWYVDGVEVHNAKTKPREEQYNSTYRVVSVLTVLHQDWLNGKEYKCKVSNKALPAPIEKTISKAKGQPREPQVYTLPPSREEMTKNQVSLTCLVKGFYPSDIAVEWESNGQPENNYKTTPPVLDSDGSFFLYSRLTVDKSRWQQGNVFSCSVMHEALHNHYTQKSLSLSPGK
light 2: DIQMTQSPSSLSASVGDRVTITCRASQGIRNDLGWYQQKPGKAPKRLIYGASSLQSGVPSRFSGSGSGTEFTLTISSLQPEDFATYYCLQHNSYPRTFGQGTTVEIKRTVAAPSVFIFPPSDEQLKSGTASVVCLLNNFYPREAKVQWKVDNALQSGNSQESVTEQDSKDSTYSLSSTLTLSKADYEKHKVYACEVTHQGLSSPVTKSFNRGEC
notes: also called bslgG1-huCD3-H101G-FEALxB7H4-C1-N52S-FEAR; BslgG1-huCD3-H101G-FEALxB7H4-C1-N52S-FEAR
B3: IgG1-B7H4-C5-FEAR (antibody, V domains shown)
VH: QLQLQESGPGLVKPSETLSLTCTVSGGSIKSGSYYWGWIRQPPGKGLEWIGNIYYSGSTYYNPSLRSRVTISVDTSKNQFSLKLSSVTAADTAVYYCAREGSYPNQFDPWGQGTLVTVSS
VL: EIVMTQSPATLSVSPGERATLSCRASQSVSSNLAWYQQKPGQAPRLLIYGASTRATGIPARFSGSGSGTEFTLTISSLQSEDFAVYYCQQYHSFPFTFGGGTKVEIKR
notes: Full length IgG1 FEAR, kappa; variable domains from US20190085080A1

Tests used:
[1] = molecular target: T1, human B7H4, full length, on cells; experiment: flow cytometry on MDA-MB-468 tumor cells [MDA-MB-468 left panel]
Procedure: (§1) Cells (3×10⁴ cells/well) were incubated in polystyrene 96-well round-bottom plates (Greiner bio-one, cat. no. 650180) with serial dilutions of antibodies (ranging from 0.000458 to 30 μg/mL in 4-fold dilution steps) in 100 μL PBS/0.1% BSA/0.02% azide (staining buffer) at 4° C. for 30 min. Experiments were performed in technical duplicate. After washing twice in staining buffer, cells were incubated in 50 μL secondary antibody at 4° C. for 30 min. As a secondary antibody, R-Phycoerythrin (PE)-conjugated goat-anti-human IgG F(ab′)₂ (1:500 in FACS buffer; Jackson ImmunoResearch Laboratories, Inc., West Grove, PA, cat. no. 109-116-098), was used. Cells were washed twice in staining buffer, re-suspended in 30 μL FACS buffer containing Topro-3 (1:10,000 dilution) and analyzed on an iQue Screener (Intellicyt Corporation, USA). Binding curves were analyzed using non-linear regression (sigmoidal dose-response with variable slope) using GraphPad Prism V7.02 software (GraphPad Software, San Diego, CA, USA).
(§2) Binding was analyzed by flow cytometry as described above.

[2] = molecular target: T2, human recombinant His tagged B7H4 …; experiment: BLI (Octet HTX); antibody on anti-human IgG Fc capture sensor, human B7H4 ECD-His in solution; 1st experiment
Procedure: (§3) Target binding affinity of B7H4 antibodies was determined by label-free biolayer interferometry (BLI) on an Octet HTX instrument (FortéBio). Experiments were carried out while shaking at 1,000 RPM at 30° C. […] Anti-Human IgG Fc Capture (AHC) biosensors (FortéBio, cat. no. 18-5060) were pre-conditioned by exposure to 10 mM glycine (Sigma-Aldrich, cat. no. 15527) buffer pH 1.7 for 5 s, followed by neutralization in Sample Diluent (FortéBio, cat. no. 18-1048) for 5 s; both steps were repeated 2 times. Next, AHC sensors were loaded with antibody (1 μg/mL in Sample diluent) for 600 s. […] The theoretical molecular mass of human B7H4 and mouse B7H4 (as ECD-His tagged molecules) based on their amino acid sequences (26.8 kDa and 26.6 kDa respectively) were used for calculations. For each antibody a reference sensor was used, which was incubated with Sample Diluent instead of antigen. AHC sensors were regenerated by exposure to 10 mM glycine buffer pH 1.7 for 5 s, followed by neutralization in Sample Diluent for 5 s; both steps were repeated twice. Subsequently sensors were loaded again with antibody for the next cycle of kinetics measurements.
(§4) Data were acquired using Data Acquisition Software v9.0.0.49d (FortéBio) and analyzed with Data Analysis Software v9.0.0.12 (FortéBio). Data traces were corrected per antibody by subtraction of the reference sensor. The Y-axis was aligned to the last 10 s of the baseline, Interstep Correction alignment to dissociation and Savitzky-Golay filtering were applied. Data traces with a response<0.05 nm were excluded from analysis. The data was fitted with the 1:1 Global Full fit model using a window of interest for the association and dissociation times set at 300 s and 200 s respectively.

[3] = molecular target: T1, human B7H4, full length, on cells; experiment: flow cytometry on SK-BR3 tumor cells [panel SK-BR3 cells]
Procedure: as §1, §2

[4] = molecular target: T1, human B7H4, full length, on cells; experiment: flow cytometry on HCC1954 tumor cells [panel HCC1954 cells]
Procedure: as §1, §2

B7H3-IgV/B7H4-IgC = molecular target: T3, B7H3-IgV/B7H4-IgC; experiment: flow cytometry, HEK cells transiently transfected with B7H3-IgV/B7H4-IgC, PE anti-human IgG F(ab')2 [panel B7H3-IgV/B7H4-IgC]
Procedure: After washing twice in FACS buffer, cells were incubated with secondary antibody at 4° C. for 30 min. […] Next, cells were washed twice in FACS buffer, re-suspended in 20 μL FACS buffer and analyzed on an iQue Screener (Intellicyt Corporation, USA).
Further experiments were conducted to study the B7H4 domain specificity of the B7H4 antibodies in more detail, by analysis of full dose-response curves.

[5] = molecular target: T4, mouse B7H4 ECD-His (R&D Systems, cat. …); experiment: BLI (Octet HTX); antibody on anti-human IgG Fc capture sensor, mouse B7H4 ECD-His in solution; 2nd experiment
Procedure: as §3, §4

Binder | EC50 (read off the curve) [1] [µg/mL] | Kd [2] [nM] | koff [2] [s⁻¹] | kon [2] [M⁻¹ s⁻¹] | EC50 (read off the curve) [3] [µg/mL] | EC50 (read off the curve) [4] [µg/mL] | binding result (B7H3-IgV/B7H4-IgC) | Kd [5] [nM] | koff [5] [s⁻¹] | kon [5] [M⁻¹ s⁻¹]
B1 | ~1 | 57 | 0.0054 | 94000 | – | – | – | – | – | –
B2 | – | – | – | – | ~1 | ~3 | binds | – | – | –
B3 | ~0.2 | – | – | – | – | – | – | 14 | 0.0024 | 170000
